In patent publication US20110217318A1 (MOCHIDA PHARMACEUTICAL, published 2011):
Changes are numbered by the printed parent chain.

B1: F1257-3-1 (antibody, V domains shown)
VH: QVTLKESGPGMLQPSKTLSLTCSFSGFSLSTSGMVVSWIRQPSGKSLEWLAAIDWDGDKYYNPSLKSRLTVSKDTSNTQVFLKISSVDIADTATYYCARTPYYGYKEAYYFDYWGQGVKVTVSS
VL: DIQMTQSPASLSASLEEIVTITCKASRAIDDYLSWYQQKPGKSPQLLIYDATSLADGVPSRFSGSRSGTQYSLKISRPQVDDSGIYYCLQSYSTPWTFGGGTKLDLKR
notes: rat hybridoma monoclonal antibody
B2: F1246-1-1 (antibody, V domains shown)
VH: EVQLVESGGDLVKPGGSLKLSCAASGFTFSSYGMSWVRQTPDKRLEWVATISNGGTYTYYPDSVKGRFTISRDNAKNTLYLQMSSLKSDDTAMYYCGRLRDYYAMDYWGQGTSVTVSS
VL: DIVLTQSPASLAVSLGQRATISCRASESVDSYGNSFMHWYQQKPGQPPKLLIYRASNLESGIPARFSGSGSRTDFTLTINPVEADDVATYYCQQSNEDPWTFGGGTKLEIKR
notes: mouse hybridoma monoclonal antibody
B3: F1249-3-2 (antibody, V domains shown)
VH: EVQLVESGGGLVKPGGSLKLSCAASGFTFSSYGMSWVRQTPDKRLEWVATISSGGSYTYYSDSVKGRFTISRDNAKNNLYLQLSSLKSQDTAIYYCARDSGYFDYWGQGTTLTVSS
VL: B2 VL with D1N, R54L, I62V, N80D, V87A, S95N, W100R
notes: as for B2
B4: F1249-24-1 (antibody, V domains shown)
VH: QVQLQQSGAELVRPGVSVKISCKGSGYTFTDYAMHWVKQSHAKSLEWIGVISTYYGDTSYNQKFKGKATMTVDKSSSTAYMELARLTSEDSAIYYCARAEDYDPWFAYWGQGTLVTVSA
VL: B2 VL with N96D, W100L, G104A, I110L
notes: as for B2
B5: F1249-20-1 (antibody, V domains shown)
VH: B4 VH
VL: B2 VL with H38Y, N96D, W100L, G104A, I110L
notes: as for B2
B6: F1249-30-1 (antibody, V domains shown)
VH: B4 VH with T69A, E89D
VL: B2 VL with N96D, W100L, G104A, I110L
notes: as for B2
B7: F1249-18-2 (antibody, V domains shown)
VH: QVQLQQPGAELVKPGASVKLSCKASGYTFTSYWMHWLKQRPGQGLEWIGMIHPNSDITNYNEKFKNKATLTVDKSSSTAYMQLSSLTSEDSAVYYCARSGDYYAMDYWGQGTSVTVSS
VL: SIVMTQTPKFLLVSAGDRVTITCKASQSVSNDVAWYQQKPGQSPKLLIYYASNRYTGVPDRFTGSGYGTDFTFTISTVQAEDLAVYFCQQDYSSPPTFGGGTKLEIKR
notes: as for B2
B8: F1245-4-1 (antibody, V domains shown)
VH: QVQLQQPGAELVKPGASVKLSCKASGCTFTSYWMHWVKQRPGQGLEWIGMIHPNSDNTNYNEKFKSKATLTVDKSSSTAYMHLSSLTSEDSAVYYCATHYYDYVDYWGQGTTLTVSS
VL: B7 VL with S1N, P96W
notes: as for B2
B9: F1245-6-2 (antibody, V domains shown)
VH: QVQLQQPGAELVKPGASVKLSCKASGYTFTSYWMHWVKQRPGQGLEWIGMIHPNSGSTNYNEKFKSKATLTVDKSSSTAYMQLSSLTSEDSAVYYCARGGVTPVAYWGQGTLVTVSA
VL: B7 VL with D60Y, P96W
notes: as for B2
B10: F1245-5-1 (antibody, V domains shown)
VH: B9 VH with T30I, N59H
VL: B7 VL with P96W
notes: as for B2
B11: F1249-5-1 (antibody, V domains shown)
VH: B7 VH with D73A, S99L
VL: B7 VL with A34T
notes: as for B2
B12: F1245-7-1 (antibody, V domains shown)
VH: QVQLQQPGAELVKPGASVKLSCKASGYTFTSYWMHWVKQRPGQGLEWIGMIHPNSGSTNYNEKFKSKATLTVDKSSSTAYMQLSSLTSEDSAVYYCASPVTAVVEYYFDYWGQGTTLTVSS
VL: SIVMTQTPKFLLVSAGDRVTITCKASQSVSNDVAWYQQKPGQSPKLLIYYASNRYTGVPDRFTGSGYGTDFTFTISTVQAEDLAVYFCQQDYSSLTFGSGTKLEIKR
notes: as for B2
B13: F1251-1-1 (antibody, V domains shown)
VH: QVNLLQSGAALVKPGASVKLSCKASGYTFTDYYIHWVKQSHGKSLEWIGYINPNSGYTNYNEKFKSKATLTVDKSTNTAYMELSRLTSEDSATYYCTRCNSGYGDWFAYWGQGTLLTVSS
VL: DIQMTQSPPVLSASVGDRVTLSCKASQNINKNLDWYQQKHGEAPKLLIYYTNNLQTDIPSRFSGSGSGTDYTLTISSLQPEDVATFYCYQYNSGPGTFGAGTKLELKR
notes: as for B1
B14: F1249-22-1 (antibody, V domains shown)
VH: QVQLQQPGAELVKPGASVKLSCKASGYTFTSYWMQWVKERPGQGLEWIGEIDPSDSYTNYNQKFKGKATLTVDTSSSTACMQLSSLTSEDSAVYYCARGAITTATLDYWGQGTTLTVSS
VL: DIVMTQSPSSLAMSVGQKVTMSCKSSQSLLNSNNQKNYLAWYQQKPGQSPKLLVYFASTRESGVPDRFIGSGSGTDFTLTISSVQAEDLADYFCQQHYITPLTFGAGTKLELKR
notes: as for B2
B15: F1232-37-2 Fab (Fab, V domains shown)
VH: VQLQQSGPELVRPGESVKISCKGSGYTFTDYAIHWVKLSHAKSLEWIGVISIYYDDTNYNQKFKGKATMTVDKSSSTAYLELARLTSEDSAIYYCARRRDSSGPYAMDYWGQGTSVTVSS
VL: B2 VL with W100Y
notes: Fab made from the mouse antibody with papain
B16: humanized F1232-37-2: Eu-HC with REI-KA (antibody, human IgG4, V domains shown)
VH: QVQLVQSGAEVKKPGSSVKVSCKASGGTFSDYAIHWVRQAPGQGLEWIGVISIYYDDTNYNQKFKGKATITADESTNTAYMELSSLRSEDTAIYYCARRRDSSGPYAMDYWGQGTLVTVSS
VL: DIQMTQSPSSLSASVGDRVTITCRASESVDSYGNSFMHWYQQKPGKAPKLLIYRASNLESGVPSRFSGSGSGTDFTFTISSLQPEDIATYYCQQSNEDPYTFGQGTKVEIKR
notes: human IgG4 heavy and kappa light constant regions
B17: humanized F1232-37-2: Eu-HC with Eu-KA (antibody, human IgG4, V domains shown)
VH: B16 VH
VL: B16 VL with S10T, I52M, S67I, D74E, F77L, E85D, I87F, I110V
notes: as for B16
B18: F1232-37-2 F(ab')2 (other)
VH: B15 VH
VL: DIVLTQSPASLAVSLGQRATISCRASESVDSYGNSFMHWYQQKPGQPPKLLIYRASNLESGIPARFSGSGSRTDFTLTINPVEADDVATYYCQQSNEDPYTFGGGTKLEIKRADAA
notes: F(ab')2 made from the mouse antibody with lysyl endopeptidase

Target: T1, human GPVI extracellular region-human Fc fusion protein (hGPVI-hFc) (human)
T1 construct: Expressed in COS-1, purified on Protein A; also called GPVI-HHH-hFc; hGPVIHHH-hFc
T1 sequence (chain, as listed by the source limits assumed): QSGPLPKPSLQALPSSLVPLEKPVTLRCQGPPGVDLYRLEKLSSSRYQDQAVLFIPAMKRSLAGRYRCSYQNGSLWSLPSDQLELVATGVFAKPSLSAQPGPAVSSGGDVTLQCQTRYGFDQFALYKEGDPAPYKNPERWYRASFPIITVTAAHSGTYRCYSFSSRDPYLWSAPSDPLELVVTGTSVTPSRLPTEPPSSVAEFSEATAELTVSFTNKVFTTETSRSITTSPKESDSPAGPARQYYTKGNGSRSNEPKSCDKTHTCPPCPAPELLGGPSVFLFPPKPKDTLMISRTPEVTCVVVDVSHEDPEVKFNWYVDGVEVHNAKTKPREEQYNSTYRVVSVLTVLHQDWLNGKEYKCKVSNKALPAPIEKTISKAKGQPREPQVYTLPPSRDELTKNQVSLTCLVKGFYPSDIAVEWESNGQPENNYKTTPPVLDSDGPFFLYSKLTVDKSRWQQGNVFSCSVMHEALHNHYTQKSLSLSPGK
Assay: SPR BIACORE 3000 as in Example 5

| KD (Relative value) | Binder |
| --- | --- |
| 0.00298 relative to F1232-37-2 = 1 | B1 |
| 0.884 relative to F1232-37-2 = 1 | B2 |
| 1.59 relative to F1232-37-2 = 1 | B3 |
| 0.00821 relative to F1232-37-2 = 1 | B4 |
| 0.00205 relative to F1232-37-2 = 1 | B5 |
| 0.347 relative to F1232-37-2 = 1 | B6 |
| 0.00103 relative to F1232-37-2 = 1 | B7 |
| 0.00427 relative to F1232-37-2 = 1 | B8 |
| 0.122 relative to F1232-37-2 = 1 | B9 |
| 1.43 relative to F1232-37-2 = 1 | B10 |
| 0.00285 relative to F1232-37-2 = 1 | B11 |
| 0.00293 relative to F1232-37-2 = 1 | B12 |
| 7.9 relative to F1232-37-2 = 1 | B13 |
| 2.06 relative to F1232-37-2 = 1 | B14 |

Target: T1, human GPVI extracellular region-human …
Assay: SPR BIACORE 3000, hGPVI-hFc on CM5 chip, 0-800 nM, 1:1 binding fit
Procedure: (§1) Dissociation constant for F1232-37-2 (whole antibody) prepared in EXAMPLE 2, and F(ab′)2 and Fab prepared in 22-1 and 21-2 was measured with Protein Interaction Analyzer BIACORE® 3000 (BIACORE). That is, hGPVI-hFc prepared in EXAMPLE 1 was coupled to sensorchip CM5 (BIACORE) according to the manual. Then a series of dilution from 0 to 800 nM of each antibody was prepared with HBS-EP buffer (BIACORE) and analyzed with BIACORE® 3000. After completion of antibody binding, chip was regenerated with glycine buffer (pH 1.5) (BIACORE). Regarding the results of whole antibody and F(ab′)₂, evaluation software Bivalent analyte (BIACORE) was used for analysis; 1:1 Binding for Fab analysis. Then the dissociation constant was calculated. As a result, dissociation constant of F1232-37-2 F(ab′)2 and Fab was about 0.7 and 0.6, respectively, when that of whole antibody defined as one.

| dissociation constant relative to whole antibody | Binder |
| --- | --- |
| ~0.6 relative to whole F1232-37-2 = 1 | B15 |

Target: T1, human GPVI extracellular region-human …
Assay: binding to antigen of co-expressed chains; antigen construct not named

| binding result | Binder |
| --- | --- |
| binds | B16 |
| binds | B17 |

Target: T1, human GPVI extracellular region-human …
Assay: SPR BIACORE 3000, hGPVI-hFc on CM5 chip, 0-800 nM, bivalent analyte fit
Procedure: as §1

| dissociation constant relative to whole antibody | Binder |
| --- | --- |
| ~0.7 relative to whole F1232-37-2 = 1 | B18 |
